Test results published in the Immune Epitope Database (IEDB).
pIC50, pKd: −log10 of the molar value.

How the values were obtained:
[1] = target: HLA-A*24:02; assay: IEDB peptide-MHC binding, purified MHC/competitive/fluorescence; filed as Kd, often an IC50 or EC50 that approximates it; ≥ and ≤ were set here for values at or beyond the usual limits of such assays; settings: source organism: Entamoeba histolytica
[2] = target: HLA-C*04:01; assay: as above; settings: source organism: Entamoeba histolytica
[3] = target: HLA-B*45:06; assay: as above
[4] = target: HLA-B*15:42; assay: as above
[5] = target: HLA-C*06:02; assay: as above; settings: source organism: Entamoeba histolytica
[6] = target: HLA-C*14:02; assay: as above; settings: source organism: Entamoeba histolytica
[7] = target: HLA-A*32:07; assay: as above; settings: source organism: Entamoeba histolytica
[8] = target: HLA-A*32:15; assay: as above; settings: source organism: Entamoeba histolytica
[9] = target: HLA-B*83:01; assay: as above
[10] = target: HLA-A*24:03; assay: IEDB peptide-MHC binding, purified MHC/direct/fluorescence; filed as Kd, often an IC50 or EC50 that approximates it; ≥ and ≤ were set here for values at or beyond the usual limits of such assays; settings: source organism: Entamoeba histolytica HM-1:IMSS
[11] = target: HLA-B*58:01; assay: IEDB peptide-MHC binding, purified MHC/competitive/fluorescence; ≥ and ≤ were set here for values at or beyond the usual limits of such assays; settings: source organism: Homo sapiens
[12] = target: HLA-A*24:02; assay: as above; settings: source organism: Homo sapiens
[13] = target: HLA-B*37:01; assay: as above; settings: source organism: Homo sapiens
[14] = target: HLA-B*08:01; assay: as above; settings: source organism: Homo sapiens
[15] = target: HLA-B*18:01; assay: as above; settings: source organism: Homo sapiens
[16] = target: HLA-B*53:01; assay: as above; settings: source organism: Homo sapiens
[17] = target: HLA-A*02:01; assay: as above; settings: source organism: Homo sapiens
[18] = target: HLA-A*01:01; assay: as above; settings: source organism: Homo sapiens
[19] = target: HLA-A*03:01; assay: as above; settings: source organism: Homo sapiens
[20] = target: HLA-B*40:02; assay: as above; settings: source organism: Homo sapiens
[21] = target: HLA-B*07:02; assay: as above; settings: source organism: Homo sapiens
[22] = target: HLA-B*51:01; assay: as above; settings: source organism: Homo sapiens
[23] = target: HLA-A*68:02; assay: as above; settings: source organism: Homo sapiens
[24] = target: HLA-B*14:02; assay: as above; settings: source organism: Homo sapiens
[25] = target: HLA-A*29:02; assay: as above; settings: source organism: Homo sapiens
[26] = target: HLA-A*31:01; assay: as above; settings: source organism: Homo sapiens
[27] = target: HLA-A*11:01; assay: as above; settings: source organism: Homo sapiens
[28] = target: HLA-B*44:03; assay: as above; settings: source organism: Homo sapiens
[29] = target: HLA-B*35:01; assay: as above; settings: source organism: Homo sapiens
[30] = target: HLA-A*25:01; assay: as above; settings: source organism: Homo sapiens
[31] = target: HLA-B*27:05; assay: IEDB peptide-MHC binding, purified MHC/competitive/fluorescence; filed as Kd, often an IC50 or EC50 that approximates it; ≥ and ≤ were set here for values at or beyond the usual limits of such assays; settings: source organism: Mycobacterium tuberculosis C
[32] = target: HLA-B*15:01; assay: as above; settings: source organism: Mycobacterium tuberculosis C
[33] = target: HLA-A*02:06; assay: as above; settings: source organism: Mycobacterium tuberculosis C
[34] = target: HLA-A*26:03; assay: as above; settings: source organism: Mycobacterium tuberculosis C
[35] = target: HLA-A*69:01; assay: IEDB peptide-MHC binding, purified MHC/direct/fluorescence; filed as Kd, often an IC50 or EC50 that approximates it; ≥ and ≤ were set here for values at or beyond the usual limits of such assays; settings: source organism: Mycobacterium tuberculosis
[36] = target: HLA-B*58:01; assay: as above; settings: source organism: Mycobacterium tuberculosis
[37] = target: HLA-B*46:01; assay: as above; settings: source organism: Mycobacterium tuberculosis
[38] = target: HLA-B*08:01; assay: as above; settings: source organism: Mycobacterium tuberculosis str. Haarlem
[39] = target: HLA-B*18:01; assay: as above; settings: source organism: Mycobacterium tuberculosis
[40] = target: HLA-B*08:03; assay: as above; settings: source organism: Mycobacterium tuberculosis str. Haarlem
[41] = target: HLA-A*01:01; assay: as above; settings: source organism: Mycobacterium tuberculosis
[42] = target: HLA-B*15:17; assay: as above; settings: source organism: Mycobacterium tuberculosis
[43] = target: HLA-B*07:02; assay: as above; settings: source organism: Mycobacterium tuberculosis
[44] = target: HLA-B*08:02; assay: as above; settings: source organism: Mycobacterium tuberculosis str. Haarlem
[45] = target: HLA-A*68:02; assay: as above; settings: source organism: Mycobacterium tuberculosis
[46] = target: HLA-B*40:01; assay: as above; settings: source organism: Mycobacterium tuberculosis
[47] = target: HLA-A*26:02; assay: as above; settings: source organism: Mycobacterium tuberculosis str. Haarlem
[48] = target: HLA-A*31:01; assay: as above; settings: source organism: Mycobacterium tuberculosis
[49] = target: HLA-B*48:01; assay: as above; settings: source organism: Mycobacterium tuberculosis
[50] = target: HLA-A*11:01; assay: as above; settings: source organism: Mycobacterium tuberculosis
[51] = target: HLA-B*57:01; assay: as above; settings: source organism: Mycobacterium tuberculosis
[52] = target: HLA-B*27:05; assay: as above; settings: source organism: Mycobacterium tuberculosis
[53] = target: HLA-A*02:01; assay: as above; settings: source organism: Mycobacterium tuberculosis
[54] = target: HLA-B*15:01; assay: as above; settings: source organism: Mycobacterium tuberculosis
[55] = source organism: Entamoeba histolytica
[56] = source organism: Mycobacterium tuberculosis C

With SYMSTFPLF the pKd [1] was ≥ 10.00, the pKd [2] was 7.05 and the pKd [3, 55] was ≤ 5.30. The pKd [4, 55] was ≤ 5.30, the pKd [5] was 6.21 and the pKd [6] was ≥ 10.00. For the same sequence, the pKd [7] was 9.30, the pKd [8] was 6.11 and the pKd [9, 55] was ≤ 5.30. The pKd [10] was ≥ 9.00.
In the case of YPDPVIKV, the pIC50 [11] was ≤ 4.70, the pIC50 [12] was ≤ 4.70 and the pIC50 [13] was ≤ 4.70. For the same sequence, the pIC50 [14] was ≤ 4.70, the pIC50 [15] was 6.53 and the pIC50 [16] was ≤ 4.70. The pIC50 [17] was 5.30, the pIC50 [18] was ≤ 4.70 and the pIC50 [19] was ≤ 4.70. The pIC50 [20] was 6.27, the pIC50 [21] was 5.84 and the pIC50 [22] was ≤ 4.70. For the same sequence, the pIC50 [23] was 6.50, the pIC50 [24] was ≤ 4.70 and the pIC50 [25] was ≤ 4.70. For the same sequence, the pIC50 [26] was ≤ 4.70, the pIC50 [27] was ≤ 4.70 and the pIC50 [28] was ≤ 4.70. For the same sequence, the pIC50 [29] was 6.13 and the pIC50 [30] was ≤ 4.70.
ALFDRPAFK was tested, and the pKd [31] was ≤ 4.70, the pKd [3, 56] was ≤ 5.30 and the pKd [4, 56] was ≤ 5.30. For the same sequence, the pKd [32] was ≤ 4.70, the pKd [33] was 6.49 and the pKd [34] was ≤ 4.70. The pKd [9, 56] was ≤ 5.30, the pKd [35] was ≤ 4.70 and the pKd [36] was ≤ 4.70. For the same sequence, the pKd [37] was ≤ 4.70, the pKd [38] was ≤ 4.70 and the pKd [39] was ≤ 4.70. The pKd [40] was ≤ 4.70, the pKd [41] was ≤ 4.70 and the pKd [42] was ≤ 4.70. The pKd [43] was ≤ 4.70, the pKd [44] was ≤ 4.70 and the pKd [45] was ≤ 4.70. The pKd [46] was ≤ 4.70, the pKd [47] was ≤ 4.70 and the pKd [48] was 8.33. For the same sequence, the pKd [49] was ≤ 4.70, the pKd [50] was 7.62 and the pKd [51] was ≤ 4.70.
For QINELHHSK, the pKd [34] was ≤ 4.70, the pKd [36] was ≤ 4.70 and the pKd [52] was ≤ 4.70. For the same sequence, the pKd [37] was ≤ 4.70, the pKd [39] was ≤ 4.70 and the pKd [53] was ≤ 4.70. The pKd [54] was ≤ 4.70, the pKd [41] was ≤ 4.70 and the pKd [42] was ≤ 4.70. The pKd [43] was ≤ 4.70, the pKd [45] was ≤ 4.70 and the pKd [46] was ≤ 4.70. For the same sequence, the pKd [48] was 6.47, the pKd [49] was ≤ 4.70 and the pKd [50] was 7.16. For the same sequence, the pKd [51] was ≤ 4.70.
